Assay [1] has as its target T1, Human CD93 on the cell surface (human CD93 expressing CHO cells; HUVEC, U937 and KG1a cells) (human, UniProt Q9NPY3 22-652).
T1 construct: whole, on cells; also called hCD93 CHO cells; CHO-hCD93
T1 sequence (looked up): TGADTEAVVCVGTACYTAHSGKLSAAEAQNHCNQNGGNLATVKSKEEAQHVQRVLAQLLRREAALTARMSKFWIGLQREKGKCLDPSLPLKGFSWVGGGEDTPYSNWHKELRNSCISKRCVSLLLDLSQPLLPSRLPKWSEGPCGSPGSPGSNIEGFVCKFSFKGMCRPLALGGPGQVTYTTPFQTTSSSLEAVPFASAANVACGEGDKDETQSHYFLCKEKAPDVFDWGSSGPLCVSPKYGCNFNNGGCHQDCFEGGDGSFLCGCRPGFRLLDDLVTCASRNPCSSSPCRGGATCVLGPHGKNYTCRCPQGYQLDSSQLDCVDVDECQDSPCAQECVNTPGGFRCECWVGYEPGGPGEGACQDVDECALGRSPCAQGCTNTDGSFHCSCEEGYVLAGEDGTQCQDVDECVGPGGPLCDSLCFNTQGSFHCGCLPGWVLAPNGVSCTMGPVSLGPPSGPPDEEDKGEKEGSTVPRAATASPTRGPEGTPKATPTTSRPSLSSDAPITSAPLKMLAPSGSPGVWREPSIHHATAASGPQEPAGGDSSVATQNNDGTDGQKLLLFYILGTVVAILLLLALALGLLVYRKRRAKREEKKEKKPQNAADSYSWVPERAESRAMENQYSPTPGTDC
Kind of assay: summary table, column 'Binding' (assay not given).

Assay [2] deals with T2, Human CD93 recombinant protein (Sino Biological Inc, Catalog #12589-H08H) (human, UniProt Q9NPY3 22-580, biotinylated with EZ-LINK NHS-PEG4 biotin in the Octet assays).
T2 construct: also called hCD93; His-tagged human CD93
T2 sequence (looked up): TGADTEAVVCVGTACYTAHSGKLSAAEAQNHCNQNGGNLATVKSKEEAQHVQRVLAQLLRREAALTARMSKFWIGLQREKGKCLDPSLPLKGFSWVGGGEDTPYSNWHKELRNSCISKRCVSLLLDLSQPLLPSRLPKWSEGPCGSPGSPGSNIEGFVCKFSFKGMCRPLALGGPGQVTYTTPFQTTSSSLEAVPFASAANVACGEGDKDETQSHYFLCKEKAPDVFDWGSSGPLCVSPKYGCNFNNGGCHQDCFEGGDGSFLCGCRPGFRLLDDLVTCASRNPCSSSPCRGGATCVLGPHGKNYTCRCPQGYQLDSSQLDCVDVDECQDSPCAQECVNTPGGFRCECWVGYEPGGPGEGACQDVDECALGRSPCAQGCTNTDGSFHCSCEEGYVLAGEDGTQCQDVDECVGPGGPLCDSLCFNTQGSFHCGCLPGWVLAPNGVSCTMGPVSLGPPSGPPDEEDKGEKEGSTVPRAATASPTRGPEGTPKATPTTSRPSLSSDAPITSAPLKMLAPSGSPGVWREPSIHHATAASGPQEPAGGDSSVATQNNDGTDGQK
Kind of assay: Octet epitope binning on biotinylated human CD93, antibody 10 µg/ml. As for the experimental part: Anti-CD93 antibody epitope bins were determined using Octet QKe (Fortebio). Human CD93 recombinant protein (Sino Biological Inc, Catalog #12589-H08H) were biotinylated using EZ-LINK NHS-PEG4 biotin (Thermo Fisher Scientific). Streptavidin biosensors tips (Fortebio) were used to capture biotinylated human CD93 protein (300 seconds in 5 μg/ml). The baseline was stabilized for 60 seconds in 1× kinetics buffer (Fortebio) before primary anti-CD93 antibodies (10 μg/ml) were allowed to associate for 300 seconds with captured protein. A panel of secondary anti-CD93 antibodies (10 μg/ml) were then allowed to associate with the antigen and primary antibody complex for additional 300 seconds. Signals were recorded for each binding event and data analysis was performed on ForteBio Data Analysis HT 11.1 software.
A general note: In BLI a coated tip is dipped into the sample, and binding shifts an interference pattern.

Assay [3] has as its target T1, Human CD93 on the cell surface (human …). The experiment in a line: FACS, human CD93 expressing CHO cells, serially diluted antibody. How it is done:
Binding of anti-CD93 antibodies 7F3 and 16E4 to cell surface expressing human CD93 CHO cells was determined by fluorescence activated cell sorting (FACS) assay. Human CD93 expressing CHO cells were detached by incubation with TrypLE reagents (Thermo Fisher), which preserves the integrity of CD93 on the cell surface. Then the cells were incubated with serially diluted anti-CD93 antibodies for 30 minutes in 4° C. After washing by FACS buffer, the cells were incubated with Alexa Fluor 647 conjugated anti-human IgG (Jackson ImmunoResearch) for 30 minutes in 4° C. After washing by FACS buffer twice, the samples were acquired in NovoCyte Flow Cytometer and analyzed by NovoExpress software.
On the technique in general: A flow cytometer gives signals particle by particle.

Assay [4] shares this target. The experiment in a line: FACS, CHO cells overexpressing human CD93.
For assay [5], the target named is T2, Human CD93 recombinant protein (Sino …). Kind of assay: ELISA, His-tagged human CD93 coated at 1 µg/mL. How it is done:
17B10 antibody produced by hybridoma (17B10-Hyb in FIG. 33) was compared to recombinant parental 17B10-hFc (17B10-hIgG1 in FIG. 33) and humanized 17B10-mFc (h17B10-H3L3 in FIG. 33) to determine the binding to human CD93. His-tagged human CD93 was coated onto a 96 well plate at 1 μg/mL in 1×PBS overnight at 4° C. The plate was washed with ELISA wash buffer (Boston BioProduct, Inc.) and the wells were blocked with ELISA blocking buffer for 1 hour at 37° C. Purified 17B10 antibodies were serially diluted in ELISA blocking buffer (Boston BioProduct, Inc.) and incubated on the receptor for 1 hour at 37° C. The plate was washed with ELISA wash Buffer. HRP conjugated Anti-mouse Fc was diluted in ELISA blocking buffer and added to the wells containing the hybridoma produced 17B10. HRP conjugated anti-human Fc was added to the well containing the recombinant 17B10 antibodies for 1 hour at 37° C. The plate was washed with ELISA wash Buffer. HRP substrate was added for indirect detection of the antibodies binding to CD93.
For orientation: ELISA stands for enzyme-linked immunosorbent assay.

B1: 5H9 (antibody, IgG2a, V domains shown)
VH: QVQLQQSGPDLVKPGASVKISCKASGYAFSTYWMNWVKQRPGKGLEWIGRIFPGDGDANYNGKFKGKATLTADKSSSTAYMQLSSLTSEDSAVYFCTRTGAAYDFDPFPYWGQGTLVTVSA
VL: DIVMTQAAFSNPVTLGTSASISCSSSKSLLHSNGVTYLYWYLQRPGQSPQLLIYRMSNLASGVPDRFSGSGSGTDFTLRISRVEAEDVGIYYCAQMLERPFTFGSGTKLEIK
notes: also called 5H9 mIgG2a
As for B1, the binding result in assay [1] and in assay [2] was “binds” in each case.

B2: 16B6 (antibody, V domains shown)
VH: QVQLQQSGPELVKPGASVKISCKASGYAFSRSWMNWVKQRPGKGLEWIGWIYPGDGDTNYNGKFKGKATLTADKSSSTAYMQLSSLTSEDSAAYFCARSATLPYWYFDVWGAGTTVTVSS
VL: DIKMTQSPSSMYASLGERVTITCKASQDIKSYLSWYQQKPWKSPKTLIYYATNLADGVPSRFSGSGSGQDYSLTISSLGSDDTATYYCLQHVESPWTFGGGTKLEIK
notes: Mouse hybridoma monoclonal antibody
As to B2, the binding result in assay [1] and in assay [2] was “binds” throughout.

B3: 19E12 (antibody, V domains shown)
VH: QVQLQQSGAELVRPGASVKLSCKASGYTFTDYEMHWVRQTPVHGLEWIGGIDPETGGTAYNQKFKGKATLTADKSSSTAYMELRSLTSEDSAVYYCTRGAWFAYWGQGTLVTVSA
VL: QAVVTQESALTTSPGETVTLTCRSSTGAVTTSNSANWVQEKPDHLFTGLIGGTNNRAPGVPARFSGSLIGDKAALTITGAQTEDEAIYFCALWYNNHFVFGGGTKLTVL
notes: as for B2
Turning to B3, the binding result in assay [1] and in assay [2] was “binds” each time.

B4: 7F3-hIgG1 (antibody, V domains shown)
VH: QVQLQQSGADLVRPGASVKLSCKASGYTFTDYEMHWVKQTPVYGLEWIGGIDPETGDTAYNQNFKGKATLTADKSSSAAYMELRSLTSEDSAVYYCTNYGNLYYYAMDYWGQGTSVTVSS
VL: ENVLTQSPAIMSASPGEKVTMTCRASSSVSSSYLHWYQQKSGASPKLWIYSTSNLAFGVPARFSGSGSGTSYSLTISSVEAEDAATYYCQQYSGYPLTFGSGTKLEIK
notes: the same paragraph also calls it 'humanized'; also called recombinant 7F3 antibody; recombinant chimeric 7F3
In general, EC50 refers to the concentration at which the effect is half-maximal. Low readings indicate higher potency in that assay, high ones lower potency in that assay. In assay [3], B4 gave an EC50 of 0.4 nM.

B5: Humanized 17B10 (VH3VL3, i.e., H3L3) (antibody, mouse IgG1, V domains shown)
VH: QVQLVQSGPEVKKPGESLKISCKASGYAFSSYWLNWVRQMPGKGLEWMGRIYPGDGDTDYNGKFKGQVTISADKSSGTAYLQLSSLKASDTAVYFCVRGDGYWAMDYWGQGTLVTVSS
VL: DIVMTQSPDSLAVSLGERATINCRFSKSLLHSNGITYLYWYQQKPGQPPKLLIYQMSNLASGVPDRFSGSGSGTDFTLTISSLQAEDVAVYYCAQNLELPWTFGGGTKLEIK
notes: also called h17B10-H3L3; humanized 17B10-mFc
Regarding B5, the binding result in assay [4] and in assay [5] was “binds” each time.

B6: Humanized 17B10 H3L1 (antibody, mouse IgG1, V domains shown)
VH: QVQLVQSGPEVKKPGESLKISCKASGYAFSSYWLNWVRQMPGKGLEWMGRIYPGDGDTDYNGKFKGQVTISADKSSGTAYLQLSSLKASDTAVYFCVRGDGYWAMDYWGQGTLVTVSS
VL: DIVMTQSPLSLPVTPGEPASISCRFSQSLLHSNGITYLYWYLQKPGQSPQLLIYQMSNLASGVPDRFSGSGSGTDFTLKISRVEAEDVGVYYCAQNLELPWTFGGGTKLEIK
B6: the binding result in assay [4] is on record as “binds”.

B7: Humanized 17B10 H3L2 (antibody, mouse IgG1, V domains shown)
VH: QVQLVQSGPEVKKPGESLKISCKASGYAFSSYWLNWVRQMPGKGLEWMGRIYPGDGDTDYNGKFKGQVTISADKSSGTAYLQLSSLKASDTAVYFCVRGDGYWAMDYWGQGTLVTVSS
VL: DIVMTQTPLSLPVTPGEPASISCRFSQSLLHSNGITYLYWYLQKPGQSPQLLIYTMSNLASGVPDRFSGSGSGTDFTLKISRVEAEDVGVYYCAQNLELPWTFGGGTKLEIK
With B7, the binding result in assay [4] is listed as “binds”.

B8: Humanized 17B10 H2L3 (antibody, mouse IgG1, V domains shown)
VH: QVQLVQSGAEVVKSGASVKVSCKASGYAFSSYWLNWVRQAPGQGLEWFGRIYPGDGDTDYNGKFKGRVTLIRDTSTSTVYMELTSLTSEDTAVYYCVRGDGYWAMDYWGQGTLVTVSS
VL: DIVMTQSPDSLAVSLGERATINCRFSKSLLHSNGITYLYWYQQKPGQPPKLLIYQMSNLASGVPDRFSGSGSGTDFTLTISSLQAEDVAVYYCAQNLELPWTFGGGTKLEIK
For B8, the binding result in assay [4] was “binds”.

B9: 17B10 (hybridoma) (antibody, V domains shown)
VH: QVQLQQSGPELVKPGASVKISCKASGYAFSSYWLNWVKQRPGKGLEWFGRIYPGDGDTDYNGKFKGKATLTADKSSSTAYMQLRSLTSEDSAVYFCVRGDGYWAMDYWGQGTSVTVSS
VL: DIVMTQAAFSNPVTLGTSASISCRFSKSLLHSNGITYLYWYLQKPGQSPQLLIYQMSNLASGVPDRFSSSGSGTDFTLRISRVEAEDVGVYYCAQNLELPWTFGGGTKLEIK
notes: Mouse hybridoma monoclonal antibody, purified over Protein G
As to B9, the binding result in assay [5] and in assay [1] was “binds” throughout.

B10: recombinant parental 17B10-hFc (antibody, human IgG1, V domains shown)
VH: QVQLQQSGPELVKPGASVKISCKASGYAFSSYWLNWVKQRPGKGLEWFGRIYPGDGDTDYNGKFKGKATLTADKSSSTAYMQLRSLTSEDSAVYFCVRGDGYWAMDYWGQGTSVTVSS
VL: DIVMTQAAFSNPVTLGTSASISCRFSKSLLHSNGITYLYWYLQKPGQSPQLLIYQMSNLASGVPDRFSSSGSGTDFTLRISRVEAEDVGVYYCAQNLELPWTFGGGTKLEIK
notes: also called 17B10-hIgG1; recombinant parental 17B10 with the human Fc
As for B10, the binding result in assay [5] is given as “binds”.

B11: 16E4-hIgG1 (antibody, V domains shown)
VH: QVQLQQPGAELVKPGASVKLSCKASGYTFTSYWMHWVKQRPGQGLEWIGEIDPSASYTYYNQKFKGKATLTVDKSSSTAYMQLSSLTSEDSAVYYCARSVYYGNKYFDVWGAGTTVTVSS
VL: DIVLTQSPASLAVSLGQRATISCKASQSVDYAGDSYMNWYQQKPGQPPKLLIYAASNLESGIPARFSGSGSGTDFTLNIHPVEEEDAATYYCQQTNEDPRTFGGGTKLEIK
notes: the same paragraph also calls it 'humanized'; also called recombinant 16E4; recombinant chimeric 16E4
B11: the concentration for a half-maximal effect (EC50) in assay [3] was 0.24 nM.

B12: 16G9 (antibody, V domains shown)
VH: EVQLQQSGPELVKPGASVKMSCKASGYTFTDYYMNWVKQSHGKSLEWIGRVNPNNGGKTYNQKFKGKATLTVDKSLSTAYMQLNSLTSEDSAVYYCARWRLRPVDYGMDYWGQGTSVTVSS
VL: DIVLTQSPASLAVSLGQRATISCRASQSVSTSSYSYMHWYQQKPGQPPKLLIKYASNLESGVPARFSGSGSGTDFTLNIHPVEEEDTATYYCQHSWEIPFTFGSGTKLEIK
notes: as for B2
As for B12, the binding result in assay [1] and in assay [2] was “binds” in each case.

(Values after US20230235075A1 (DYNAMICURE BIOTECHNOLOGY, published 2023).)
